The nature of this data set: yeast display, Sf9 membrane polyspecificity reagent, FACS + sequencing; frameworks hold sequencing errors. The gist of the method: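 Sorting gates, low and high (top ~1%), were placed on anti-HA fluorescence to track expression and on streptavidin fluorescence to track reagent binding. A clone's polyreactivity label is taken from the gate it came out of. The reagent was 10% biotinylated, detergent-solubilized Sf9 membrane, applied for 1 hour at 4 °C to galactose-induced yeast display cells.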
On to “QVQLVESGGGLVQAGGSLRLSCAASGFIFNRYAMGWYRQAPGKERELVADITGGSTYYADSVKGRFTISRDNAKNTVYLQMNSQKPEDTEVYYCAADRYGFYLESDYWGQGTQVTVSS”, for which the “polyreactivity (PSR sort gate)” value is reported as “low polyreactivity”.

Consider “QVQLVESGGGLVQAGGSLRLSCAASGFIFNTMGWYRQARGKERELVARITRGGSTDYADSVKGRFTISRDNAKNTVYLQMNSLKPEDTAFYYCAAAIGHFERFYWGQGTQVTVSS”, for which the “polyreactivity (PSR sort gate)” value is on record as “low polyreactivity”.

Regarding “QVQLVESGGGLVQAGGSLRLSCAASGFIFNYNAMGWYRQAPGKERELVAAISGTGVRTYYADSVKGRFTISRDNAKNTVYLQMNRLKPEDTAVYYCNAYYGYIPVSGYRNDYWGQGTQVTVSS”, the “polyreactivity (PSR sort gate)” value is given as “low polyreactivity”.

In the case of “QVQLVESGGGLVQAGGSLRLSCAASGFIFNYNTMGWYRQAPGKERELVAAISFSGGSTYYADSVKGRFTISRDNAKNTVYLQMNSLKPEDTAVYYCATRNGRQYSVSYRYYYWGQGTQVTVSS”, the “polyreactivity (PSR sort gate)” value is listed as “low polyreactivity”.

As to “QVQLVESGGGLVQAGGSLRLSCAASGFIFPAYAMGWYRQAPGKERELVAGITSRGGSTYYADSVKGRFTISRDNAKNTVYLQMNSLKPEDTAVYYCAKPYHWPWTRFDYWGQGTQVTVSS”, the “polyreactivity (PSR sort gate)” value was “low polyreactivity”.

With “QVQLVESGGGLVQAGGSLRLSCAASGFIFPDYAMGWSRQAPGKERELVAAISKRGGSTYYADSVKGRFTISRDNAKNTVYLQMNSLKPEDTAVYYCAAVTSVNPSVFNGNYWGQGTHVTVSS”, the “polyreactivity (PSR sort gate)” value was “low polyreactivity”.

Consider “QVQLVESGGGLVQAGGSLRLSCAASGFIFPLYTMGWYRQAPGKERELVAAITCSGGSTYYADSVKGGFTISRDNAKNTVYLQMNSLKPEDTAVYYCAKDYTYGMDWGQGTQVTVSS”, for which the “polyreactivity (PSR sort gate)” value was “low polyreactivity”.

Turning to “QVQLVESGGGLVQAGGSLRLSCAASGFIFPNYAMGWYRQAPGKEREFVASISWSGGSTYYADSVKGRFTISRDNAKNTVYLQMNSLKPEDTEVYYCNAVAFFNHGAGEDYWGQGTQVTVSS”, the “polyreactivity (PSR sort gate)” value is “high polyreactivity”.

Turning to “QVQLVESGGGLVQAGGSLRLSCAASGFIFPQYAMGWYRQAPGKERELVAAISTGGGSTYYADSVKGRFTISRDNAKNTVYLQMNSLKPEDTAVYYCAKYVYRFARYNLDYWGQGTQVTVSS”, the “polyreactivity (PSR sort gate)” value is reported as “high polyreactivity”.

For the sequence “QVQLVESGGGLVQAGGSLRLSCAASGFIFPRNAMGWYRPAPGKERELVAAISRSGGRTYYADSVKGRFTISRDNAKNTVYLQMNSLKPEDTAVYYCNADLALRSRYGEYDYWGQGTQVTVSS”, the “polyreactivity (PSR sort gate)” value is reported as “high polyreactivity”.

Take “QVQLVESGGGLVQAGGSLRLSCAASGFIFPRNAMGWYRQAPGKERELVAGITRGGSTNYADSVKGRFTISRDNAKNTVYLQMNSLKPEDTAVYYCAAKSYNYNRPYGWREYDYWGQGTQVTVSS”: the “polyreactivity (PSR sort gate)” value is recorded as “high polyreactivity”.

For “QVQLVESGGGLVQAGGSLRLSCAASGFIFPRNVMGWYRQAPGKERELVAAISRSGGSTYYADSVKGRFTISRDNAKNTVYLQMNSLTPEDTAVYYCAKRPAYYYFVYQVPIGYDYWGQGTQVTVSS”, the “polyreactivity (PSR sort gate)” value is on record as “high polyreactivity”.

Consider “QVQLVESGGGLVQAGGSLRLSCAASGFIFPRYAMGWYRQAPGKERELVADISYSGGSTYYADSVKGRFTISRDNAKNTVYLQMNSLKPEDTAVYRPYAFGYWGQGTQVTVSS”, for which the “polyreactivity (PSR sort gate)” value was “high polyreactivity”.

Consider “QVQLVESGGGLVQAGGSLRLSCAASGFIFPSYAMGWYRQAPGKERELVAAITSSGGSTYYADSVKGRFTISRDNAKNTVYLQMNSLKPEDTAVYYCNARYPGRARRYNYWGQGTQVTVSS”, for which the “polyreactivity (PSR sort gate)” value was “high polyreactivity”.

For the sequence “QVQLVESGGGLVQAGGSLRLSCAASGFIFPTNVMGWYRQAPGKEREFVASITWRGGGTYYADSVKGRFTISRDNAKNTVYLPMNSLKPEDTAVYYCAAGRSWSSYWKYDYWGQGTQVTVSS”, the “polyreactivity (PSR sort gate)” value is on record as “low polyreactivity”.

Regarding “QVQLVESGGGLVQAGGSLRLSCAASGFIFPTYAMGWYRQAPGKERELVATITSAVRTKYADSVKGRFTISRDNAKNTVYLQMNSLKPEDTAVYYSAAAYTVARFYRYYYWGQGTQVTVSS”, the “polyreactivity (PSR sort gate)” value is “high polyreactivity”.

“QVQLVESGGGLVQAGGSLRLSCAASGFIFPVYAMGWYTQGGGKERELVADISSDGSTNYADSVKGRFTISRDNAKNTVYLQMNSLKPEDTAVYYCAREDNLRHQSDSRYDYWGQGTQVTVSS”: the “polyreactivity (PSR sort gate)” value is listed as “low polyreactivity”.

For the sequence “QVQLVESGGGLVQAGGSLRLSCAASGFIFPWYAMGGYRQAPRKERELVAAITSGGTTYYADSVKGRFTISRDNAKNTVYLQMNSLKPEDTAVYYCAAQYYFYPHEFDYWGQGTQVTVSS”, the “polyreactivity (PSR sort gate)” value is recorded as “low polyreactivity”.

Regarding “QVQLVESGGGLVQAGGSLRLSCAASGFIFPYYAMGWYRQAPGKERELVAAITRSGGRTYYADSVKGRFTISRDNAKNTVYLQMNSLKPEDTAVYYCAVRYIRYRNLKYDFWGQGTHVTVSS”, the “polyreactivity (PSR sort gate)” value is listed as “high polyreactivity”.

Turning to “QVQLVESGGGLVQAGGSLRLSCAASGFIFQAYALGWYRQAPGKERELVASISYSGSRTYYADSVKGRFTISRDNAKNTVYLQMNSLKPEDTAGYYCAARYGRYYKYNYWGQGTQVTVSS”, the “polyreactivity (PSR sort gate)” value is “high polyreactivity”.

Turning to “QVQLVESGGGLVQAGGSLRLSCAASGFIFQAYAMGWYRQAPGKERELVAAISSSGGSTYYADSVTGRFTISRDNAKNTVYLQMNSLKPEDTAVYYCAALRYVKMLAQAYEYWGQGTQVTVSS”, the “polyreactivity (PSR sort gate)” value is given as “high polyreactivity”.

As to “QVQLVESGGGLVQAGGSLRLSCAASGFIFQDYALGWYRKAPGKERELVAAITQSSGSTYYADSVKGRFTISRDNAKNTVYLQMNSLKPEDTAVYYCNTAYDFSRQASYDYWGQGTQVTVSS”, the “polyreactivity (PSR sort gate)” value is reported as “low polyreactivity”.

As for “QVQLVESGGGLVQAGGSLRLSCAASGFIFQEYAMGWYRQAPGKERELVAAITSGGSTNYADSVKGRFTISRDNAKNTVYLQMNSLKPADTAVYYCNVDSPDYYYDYDYWGQGTQVTVSS”, the “polyreactivity (PSR sort gate)” value is “low polyreactivity”.

Regarding “QVQLVESGGGLVQAGGSLRLSCAASGFIFQPYAMGWYRQAPGKERELVAAITSRGGRTYYADSVKGRITISRDNAKNTVYLQMNSLKPEDTAVYYCNADIYASEYYYWGQGTQVTVSS”, the “polyreactivity (PSR sort gate)” value is reported as “low polyreactivity”.

Regarding “QVQLVESGGGLVQAGGSLRLSCAASGFIFQSYAMGWYRQAPGKERELVAAITRSGGRTYYADSVKGRFTISRDNAKNTVYLQMNSLKPEDTAVYYCAAETSYPGIYRFYYWGQGTQVTVSS”, the “polyreactivity (PSR sort gate)” value is reported as “high polyreactivity”.

As for “QVQLVESGGGLVQAGGSLRLSCAASGFIFQVYAMGWYRQAPGKERELVAAISDDGSTNYADSVKGRFTISRDNAKYTVYLQMNSLKPEDTAVYYCAKESWGRLYYRYDYWGQGTQVTVSS”, the “polyreactivity (PSR sort gate)” value is listed as “low polyreactivity”.

Consider “QVQLVESGGGLVQAGGSLRLSCAASGFIFQWYAMGWYRPAPGKERELVAGISAGSTNYADSVKGRFTISRDNAKNTVYLQMNSLKPEDTAVYYCAARDYYIPYYSPGYPYDYWGQGTQVTVSS”, for which the “polyreactivity (PSR sort gate)” value is given as “high polyreactivity”.

As to “QVQLVESGGGLVQAGGSLRLSCAASGFIFRAYAMGWYRQAPGKERELVAAISRSGSRTYYADSVKGRFTISRDHAKNTVYLQMNSLKPEDTAVYYCAADHGSLLYDYWGQGTQVTVSS”, the “polyreactivity (PSR sort gate)” value is “high polyreactivity”.

In the case of “QVQLVESGGGLVQAGGSLRLSCAASGFIFRAYAMGWYRQAPGKERELVAAISWRGTSTYYADSVKGRFTISRDNAKNTVYLQMNSLKPEDTAVYYCARRRYLPFSRSQGSEDYWGQGTQVTVSS”, the “polyreactivity (PSR sort gate)” value is on record as “high polyreactivity”.

For “QVQLVESGGGLVQAGGSLRLSCAASGFIFRDYVMGWYRQAPGKERELVAAISYRDGSTYYADSVKGRFTISRDNAKNTVYLQMNSLKPEDTAVYYCNAPGYQGYEYWGQGTQVTVSS”, the “polyreactivity (PSR sort gate)” value was “low polyreactivity”.

For the origin of these results see the nanobody polyreactivity screen of Harvey et al. (2022).
